Data as given in publication PMC9076029 (Journal of Molecular Biology, 2022).
Where two headings read alike, the source gives them in different places.

What was measured:
Experiment in all cases: ITC
[1] = biological target: T1, SARS-CoV-2 spike protein receptor binding domain, wild-type (SARS-CoV-2, UniProt P0DTC2)
[2] = biological target: T1, SARS-CoV-2 spike protein receptor …; remark: listed apart in the source
[3] = biological target: T1, SARS-CoV-2 spike protein receptor …; remark: listed apart in the source
[4] = biological target: T1, SARS-CoV-2 spike protein receptor …; remark: listed apart in the source

B1: LY-CoV555 single chain variable fragment (scFv, V domains shown)
VH: QVQLVQSGAEVKKPGSSVKVSCKASGGTFSNYAISWVRQAPGQGLEWMGRIIPILGIANYAQKFQGRVTITADKSTSTAYMELSSLRSEDTAVYYCARGYYEARHYYYYYAMDVWGQGTAVTVSS
VL: not shown
With B1 the Kd [1] was 0.0039 ± 0.0019 µM and the Kd [2] was 0.0038 ± 0.0019 µM.

B2: REGN10987 single chain variable fragment (scFv, V domains shown)
VH: QVQLVESGGGVVQPGRSLRLSCAASGFTFSNYAMYWVRQAPGKGLEWVAVISYDGSNKYYADSVKGRFTISRDNSKNTLYLQMNSLRTEDTAVYYCASGSDYGDYLLVYWGQGTLVTVSS
VL: QSALTQPASVSGSPGQSITISCTGTSSDVGGYNYVSWYQQHPGKAPKLMIYDVSKRPSGVSNRFSGSKSGNTASLTISGLQSEDEADYYCNSLTSISTWVFGGGTKLTVL
B2 gave a Kd [3] of 0.0343 ± 0.0081 µM.

B3: LY-CoV016 single chain variable fragment (scFv, V domains shown)
VH: EVQLVESGGGLVQPGGSLRLSCAASGFTVSSNYMSWVRQAPGKGLEWVSVIYSGGSTFYADSVKGRFTISRDNSMNTLFLQMNSLRAEDTAVYYCARVLPMYGDYLDYWGQGTLVTVSS
VL: not shown
B3 gave a Kd [4] of 0.0493 ± 0.0101 µM and a dH [4] of -48.95 ± 0.418 kJ/mol.
